Test results: PMC11500612, “Differential effects of inosine monophosphate dehydrogenase (IMPDH/GuaB) inhibition in Acinetobacter baumannii and Escherichia coli” (Journal of Bacteriology, 2024)

Target: the molecule itself
Test: crystal structure

B1: A. baumannii GuaB with CBS domain deletion protein (M1-G488_ΔM93-R201) (enzyme)
chain: MLTIVQEALTFDDVLLLPAYSTVLPKDVSLKTRLTRGIYLNIPLVSAAMDTVTESRMAIAMAQNGGIGILHKNMDIAAQAAEVRRVKKFEAGKAESYPNSCKDDLGRLRVGAAVGTGADTPSRVEALVEAGVDVIVVDTAHGHSAGVIERVRWVKQNFPQVQVIGGNIATGDAALALLDAGADAVKVGIGPGSICTTRIVAGIGMPQISAIDSVASALKDQIPLIADGGIRFSGDMAKAIGAGASTIMVGSLLAGTEEAPGEVEFFQGRYYKAYRGMGSLGAMAGATGSADRYFQDSKAGAEKLVPEGIEGRVPYKGPMGNIVHQMMGGLRSSMGYTGSAVIEDLRQNAKFVKITSAGMSESHVHDVTITKEAPNYRVG
notes: also called A. baumannii GuaBΔCBS; GuaB^Ab; source: expressed, purified, and crystallized as described (28)
B1: binds.
